To fix the notation:
B1: compound 50, NPEG4-(IETDV)2 fused to L-DPV3 (Ac-RKKRRRESRKKRRRES-) (peptide)
peptide: NPEG4-IETDV
chain: Ac-RKKRRRESRKKRRRES-NPEG4
modifications: reading uncertain; also: two IETDV copies joined at their N-termini by the NPEG4 linker, CPP C-terminus linked to the NPEG4 nitrogen, printed as NPEG4-(IETDV)2 fused to L-DPV3 (Ac-RKKRRRESRKKRRRES-)
notes: Branched compound CPP-NPEG4-(P1)(P2), formula (XXVIII)
B2: compound 52, NPEG4-(IETDV)2 fused to L-pVEC (Ac-LLIILRRRIRKQAHAHSK-) (peptide)
peptide: NPEG4-IETDV
chain: Ac-LLIILRRRIRKQAHAHSK-NPEG4
modifications: reading uncertain; also: two IETDV copies joined at their N-termini by the NPEG4 linker, CPP C-terminus linked to the NPEG4 nitrogen, printed as NPEG4-(IETDV)2 fused to L-pVEC (Ac-LLIILRRRIRKQAHAHSK-)
notes: as for B1
B3: compound 67, NPEG4-(KETLV)2 fused to L-Arg7 (Ac-RRRRRRR-) (peptide)
peptide: NPEG4-KETLV
chain: Ac-RRRRRRR-NPEG4
modifications: reading uncertain; also: two KETLV copies joined at their N-termini by the NPEG4 linker, CPP C-terminus linked to the NPEG4 nitrogen, printed as NPEG4-(KETLV)2 fused to L-Arg7 (Ac-RRRRRRR-)
notes: as for B1
B4: compound 71, NPEG4-(KETLV)2 fused to L-Arg5 (Ac-RRRRR-) (peptide)
peptide: NPEG4-KETLV
chain: Ac-RRRRR-NPEG4
modifications: reading uncertain; also: two KETLV copies joined at their N-termini by the NPEG4 linker, CPP C-terminus linked to the NPEG4 nitrogen, printed as NPEG4-(KETLV)2 fused to L-Arg5 (Ac-RRRRR-)
notes: as for B1
B5: compound 73, NPEG4-(KETLV)2 fused to L-Arg4 (Ac-RRRR-) (peptide)
peptide: NPEG4-KETLV
chain: Ac-RRRR-NPEG4
modifications: reading uncertain; also: two KETLV copies joined at their N-termini by the NPEG4 linker, CPP C-terminus linked to the NPEG4 nitrogen, printed as NPEG4-(KETLV)2 fused to L-Arg4 (Ac-RRRR-)
B6: compound 27, NPEG4-(KETVV)2 fused to L-Arg9 (Ac-RRRRRRRRR-) (peptide)
peptide: KETVV
chain: Ac-RRRRRRRRR
modifications: not fully specified (N-terminus, C-terminus); also: dimer: two copies bridged at N-termini by NPEG4, Arg9 C-terminus on NPEG4 nitrogen
notes: Branched compound CPP-NPEG4-(P1)(P2), formula (XXVIII); also called formula (XIX)
B7: compound 25, NPEG4-(KETTV)2 fused to L-Arg9 (Ac-RRRRRRRRR-) (peptide)
peptide: KETTV
chain: Ac-RRRRRRRRR
modifications: not fully specified (N-terminus, C-terminus); also: dimer: two copies bridged at N-termini by NPEG4, Arg9 C-terminus on NPEG4 nitrogen
notes: Branched compound CPP-NPEG4-(P1)(P2), formula (XXVIII); also called formula (XVIII)
B8: compound 29, NPEG4-(KETRV)2 fused to L-Arg9 (Ac-RRRRRRRRR-) (peptide)
peptide: KETRV
chain: Ac-RRRRRRRRR
modifications: not fully specified (N-terminus, C-terminus); also: dimer: two copies bridged at N-termini by NPEG4, Arg9 C-terminus on NPEG4 nitrogen
notes: Branched compound CPP-NPEG4-(P1)(P2), formula (XXVIII); also called formula (XX)
B9: compound 33, NPEG4-(VETVV)2 fused to L-Arg9 (Ac-RRRRRRRRR-) (peptide)
peptide: VETVV
chain: Ac-RRRRRRRRR
modifications: not fully specified (N-terminus, C-terminus); also: dimer: two copies bridged at N-termini by NPEG4, Arg9 C-terminus on NPEG4 nitrogen
notes: also called formula (XXII)
B10: compound 31, NPEG4-(ISTDV)2 fused to L-Arg9 (Ac-RRRRRRRRR-) (peptide)
peptide: ISTDV
chain: Ac-RRRRRRRRR
modifications: not fully specified (N-terminus, C-terminus); also: dimer: two copies bridged at N-termini by NPEG4, Arg9 C-terminus on NPEG4 nitrogen
notes: Branched compound CPP-NPEG4-(P1)(P2), formula (XXVIII); also called formula (XXI)
B11: compound 6, OPEG4-(ISTDV)2 (peptide)
peptide: OPEG4-ISTDV
modifications: also: dimer: two ISTDV copies joined at their N-termini by the OPEG4 linker
notes: Dimer of formula (XXXIII), P1 = P2, no CPP
B12: compound 4, OPEG4-(KETVV)2 (peptide)
peptide: OPEG4-KETVV
modifications: also: dimer: two copies bridged at N-termini by OPEG4
notes: Dimer of formula (XXXI), P1 = P2, no CPP
B13: compound 5, OPEG4-(KETRV)2 (peptide)
peptide: OPEG4-KETRV
modifications: also: dimer: two KETRV copies joined at their N-termini by the OPEG4 linker
notes: Dimer of formula (XXXII), P1 = P2, no CPP
B14: compound 7, OPEG4-(VETVV)2 (peptide)
peptide: OPEG4-VETVV
modifications: also: dimer: two VETVV copies joined at their N-termini by the OPEG4 linker
notes: Dimer of formula (XXXIV), P1 = P2, no CPP
B15: compound 2, OPEG4-(KETLV)2 (peptide)
peptide: OPEG4-KETLV
modifications: also: dimer: two copies bridged at N-termini by OPEG4
notes: Dimer of formula (XXIX), P1 = P2, no CPP

Drawing on patent US20240245793A1 (UNIVERSITY OF COPENHAGEN, published 2024), this text covers Ki for 15 molecules.

No end group written: not given here. OPEG4 = PEG4 linker (Xa = -O-, formula XXVI) joining two peptide copies; NPEG4 = not defined here

One assay deals with T1, PDZ1-2 of PSD-95 (postsynaptic density protein-95) (UniProt P78352 61-249, limits assumed).
T1 construct: domain: PDZ1-2; also called PSD-95 PDZ1-2; PSD-95 PDZ12
T1 sequence (P78352 61-249 limits assumed): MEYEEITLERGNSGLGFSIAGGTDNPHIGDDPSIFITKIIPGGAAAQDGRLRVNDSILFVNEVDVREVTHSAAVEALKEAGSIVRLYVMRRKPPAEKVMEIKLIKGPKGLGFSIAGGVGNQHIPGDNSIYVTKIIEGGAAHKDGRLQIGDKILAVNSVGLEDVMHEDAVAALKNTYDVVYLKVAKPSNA
Description: FP competition against fluorescent dimeric probe, Ki from IC50.
The molecule B1 came in with a Ki of 16.6 nM.
Regarding B2, the Ki came out at 13.3 nM.

In a further assay the target is T1, PDZ1-2 of PSD-95 (postsynaptic density …). The assay is described as above. The source holds these as a separate data set.
B3 had a Ki of 5.8 nM.
The molecule B4 had a Ki of 10.9 nM.
On the same count and under the same terms, next, B5: 11.1 nM.

For a further assay the target is unchanged. The description is as above. The source holds these as a separate data set.
On to B6, for which the Ki is 6.3 nM.
The same measure, in the same setting: for B7 the value was 5.6 nM; for B8, 10.1 nM.
Regarding B9, the affinity corresponds to a Ki of 19.9 nM.
B10 gave a Ki of 62.3 nM.

The target is the same in another assay. The assay is described as above. This is another data set of the same source.
The molecule B11 had an inhibition constant Ki of 53.1 nM.
In the case of B12, the affinity corresponds to a Ki of 15.8 nM.
Same read-out and setting: next, B13: 53.2 nM; B14: 17 nM.
The same measure, in the same setting: next, B15: 11.1 nM.
